23 sequences from the DeepSol protein solubility set can be followed below.

The series is described as follows: soluble on expression in E. coli; label from the status in PepcDB or PDB records.
“SLKINQEEDTVSSEKNKLCDNNNNNNMVHTRHIYNVCELNKCLRENKLIPYNNIYKMKHLYLNILDTFDENILKHVNKAHLFIDSVIQKKKNILIHSMAGISRCSSIILSYVSKKNKKGIEYNFNLLKSKYPFAHPNENFYRQLLLYEKMNYTLDGCTDYHNIYK”: the “soluble on expression in E. coli” value is recorded as “not soluble”.

Consider “SLKNTGYILALCLTASGHVLAHDVWITGKQAENNVTAEIGYGHNFPSKGTIPDRRDFFENPRLYNGKETITLKPASTDYVYKTESASKDNGYVLSTYMKPGYWSRTSSGWKPVSREGRNDVAYCEFVTKYAKSFIPGEQQMPAQLYQSPTGHELEIIPLSDISRFSENVKLKVLYKTSPLAGAIMELDSVSYLTSSRHTHAVEHKHPVHKAELTFVTNEDGIVTVPSLHIGQWLAKVQNKKSFQDKSLCDETVDVATLSFSRN”, for which the “soluble on expression in E. coli” value is listed as “not soluble”.

With “SLLCIALALGILVKYQNSQDVSSVKPDYFIDKQEDLISLNKDHYEIGIFQENEFDNNKSVSILEQKIQEIDDLNTSLNEQNLSSVEQNLSLEQNQSLEQNFILKDTNLTQDQNLTFNEDIHLNKISKKPKLAIIIDDMANASQVRGLKALNLKLNPSFFPPDKNHSETPKLALKFDFYMVHLPLAAINYNKPELDTLNPNDSKERIFKKIKQIKKDFKDLRYINNHTGSLFTSNEEAMRKLYEVLKNQNIFFVDSKTIGNSKANKIAKELNVPYIQRDVFLDNEDDVNYVKKQLESAVKLTQKKGFVIAIGHPRKNTFKALEQSKDLLKSVDLVYLSEIYGK”, the “soluble on expression in E. coli” value is recorded as “soluble”.

In the case of “SLLSETSTALGLQELSNITMPVIFNEPLSFLQRLTEYMEHTYLIHKASSLSDPVERMQCVAAFAVSAVASQWERTGKPFNPLLGETYELVRDDLGFRLISEQVSHHPPISAFHAEGLNNDFIFHGSIYPKLKFWGKSVEAEPKGTITLELLDHNEAYTWTNPTCCVHNIIVGKLWIEQYGNVEIINHKTGDKCVLNFKPCGLFGKELHKVEGYIQDKSKKKLCALYGKWTECLYSVDPATFDAYKKNDKKNTEEKKNSKQTSSSEESDEMPVPDSESVFIIPGSVLLWRIAPRPPNSAQMYNFTSFAMVLNEVDKEMESVIPKTDCRLRPDIRAMENGEIDLASEEKKRLEEKQRAARKNRSKSEEDWKTRWFHQGPNPYSGAQDWIYSGSYWDRNYFNLPDIY”, the “soluble on expression in E. coli” value was “soluble”.

For the sequence “SLNGKYATLKDVAKLAGTTASTVSYVLNDSKERYISDEMRRRVLEAAKDLNYVKCSVASSLKGEKRKIIAVLVPQFSNQFFTRIILAIENVADQFDYVLTIYNTFDDPKREKVIINRMAQHRMDGYIIIPTYEGVKNTEQLRKIGIPMVVMDRPLEGIDDFIWVTTNNYQCGYKGAHYLALKGHRNIAFIGWNSRINDLDSRKNGFWDALAASGITSEEAIVIDGEFSEEDGYKMTKNLLKTRPDITAIFYGYNVQAQGGVRYLMKENIEIGKDISVMLIGSPEWAVTGYNNFTHIEQDEYNLGKSAATILFSIINGENQENIQNIIQDCSLYEGNSVYDITKEG”, the “soluble on expression in E. coli” value is given as “soluble”.

Consider “SLNIKDEHIDSVCSLLDQLVGNVSFKNLFTGYGLFHKEETMFAIWQNKKLYLRGEGVLAIQLTKLGCEPFTTNELNKRFVLSQYYALSDQILRSNRLCRKLIILSIKQILEQKLECTLRKLNRLKDLPNLTIKHERALIKVGITNVAMLREIGAENALVELKKSGSGATLDFYWKLVCALQNKNSQMLSQAEKERLLKKLNEVWRKNGLKGYRKLDDE”, for which the “soluble on expression in E. coli” value is given as “not soluble”.

As to “SLNSSIDVDSLMRSVSRVFKFIDMPTEGKPTKSTKPYKNGQLSKVMIIENSHVKKDDIWPSGGQMTVKDLTAKYTEGGNAILENISFSISPGQRVGLLGRTGSGKSTLLSAFLRLLNTEGEIQIDGVSWDSITLQQWRKAFGVIPQKVFIFSGTFRKNLDPYEQWSDQEIWKVADEVGLRSVIEQFPGKLDFVLVDGGCVLSHGHKQLMCLARSVLSKAKILLLDEPSAHLDPVTYQIIRRTLKQAFADCTVILCEHRIEAMLECQQFLVIEENKVRQYDSIQKLLNERSLFRQAISPSDRVKLFPHRNSSKCKSKPQIAALKEETEEEVQDTRL”, the “soluble on expression in E. coli” value is reported as “soluble”.

Take “SLPKQIDTILINIGQLLTMESSGPRAGKSMQDLHVIEDAVVGIHEQKIVFAGQKGAEAGYEADEIIDCSGRLVTPGLVDPHTHLVFGGSREKEMNLKLQGISYLDILAQGGGILSTVKDTRAASEEELLQKAHFHLQRMLSYGTTTAEVKSGYGLEKETELKQLRVAKKLHESQPVDLVSTFMGAHAIPPEYQNDPDDFLDQMLSLLPEIKEQELASFADIFTETGVFTVSQSRRYLQKAAEAGFGLKIHADEIDPLGGAELAGKLKAVSADHLVGTSDEGIKKLAEAGTIAVLLPGTTFYLGKSTYARARAMIDEGVCVSLATDFNPGSSPTENIQLIMSIAALHLKMTAEEIWHAVTVNAAYAIGKGEEAGQLKAGRSADLVIWQAPNYMYIPYHYGVNHVHQVMKNGTIVVNREGAILG”: the “soluble on expression in E. coli” value was “soluble”.

For the sequence “SLRTEQEMMDVILTIAKKEERIRAVYMNGSRTNSNVPKDLFQDYDIVYVVTDIAPFIQEQQWLKKFGEPLMIQEPDQLDAGIGVNRDFSRRYAFLMLFTDGNRIDLTLQTKETMREVYENDTLTVPLLDKDHCLPPIPPPSDSDYHVKEPTEGEFISCTNNFWWCLQNVAKGIWRDELPYAKQMFELTTRASLDEMVNWWIGLENDFQLSTGKLGKYFKKHLPPPYWAMYEATYANSDYEQMWESIFIACDLFRTLAKDVAAACSFTYPETDDRNMTDYLHRVKNLSADATDM”, the “soluble on expression in E. coli” value is recorded as “soluble”.

Regarding “SLSANLVGITGIARRLVQDGSIEEATARTAQNQAMAAKVPLPQWLIDKKLVSAAKLAAANALEFGMPLLDVSAFDHNHNAMNLVDEELLQKHRVLPLFKRGNRLFVGISNPTQTQALDDIKFHTNLVVEPILVDEDQIRRTLEQWQSRKG”, the “soluble on expression in E. coli” value is on record as “soluble”.

For “SLSRRGIDFLNDWIAEHHPDTLTEDPTAIADLADQLMAAAEKQGLSRRDISEEVGSVFQVILEAMQNRSGGRLYSSRWG”, the “soluble on expression in E. coli” value is “soluble”.

Turning to “SLSRYLLTDSPAVCVLSGERGVGTTTVLKRILNKTKNAVPIYINCPYDGYAALLPELAQLLGLDAESSEKDILQHLRNSEQCYLIAFDNAQRLVKPKVNGLVELMKLTNLLRRARKSHRVVLSIDKSSWRFIDRARGERLLFDLVTFMP”, the “soluble on expression in E. coli” value is reported as “not soluble”.

With “SLSSPGDIPAEDFADHVRKNERDSNCGFADEYQQLSLVGHSQSQMVASASENNAKNRYRNVLPYDWSRVPLKPIHEEPGSDYINASFMPGLWSPQEFIATQGPLPQTVGDFWRLVWEQQSHTLVMLTNCMEAGRVKCEHYWPLDSQPCTHGHLRVTLVGEEVMENWTVRELLLLQVEEQKTLSVRQFHYQAWPDHGVPSSPDTLLAFWRMLRQWLDQTMEGGPPIVHCSAGVGRTGTLIALDVLLRQLQSEGLLGPFSFVRKMRESRPLMVQTEAQYVFLHQCICGSSNSQPRPQPRRKSRMRMSKTSSTRTWPPSRPTSWRSK”, the “soluble on expression in E. coli” value is recorded as “soluble”.

For the sequence “SLTQIQPGVEKFIKDFNDAKKKGEHAYDMTLSYQNFDKGFFNSRFQMQMTFDNGAPDLNIKPGQKVVFDVDVEHGPLPITMLMHGNVIPALAAAKVNLVNNELTQPLFIAAKNKSPVEATLRFAFGGSFSTTLDVAPAEYGKFSFGEGQFTFNGDGSSLSNLDIEGKVEDIVLQLSPMNKVTAKSFTIDSLARLEEKKFPVGESESKFNQINIINHGEDVAQIDAFVAKTRLDRVKDKDYINVNLTYELDKLTKGNQQLGSGEWSLIAESIDPSAVRQFIIQYNIAMQKQLAAHPELANDEVALQEVNAALFKEYLPLLQKSEPTIKQPVRWKNALGELNANLDISIADPAKSSSSTNKDIKSLNFDVKLPLNVVTETAKQLNLSEGMDAEKAQKQADKQISGMMTLGQMFQLITIDNNTASLQLRYTPGKVVFNGQEMSEEEFMSRAGRFVH”, the “soluble on expression in E. coli” value is listed as “soluble”.

Turning to “SLTTLKTMTRVQLGAMGEALAVDYLTSMGLRILNRNWRCRYGELDVIACDAATRTVVFVEVKTRTGDGYGGLAHAVTERKVRRLRRLAGLWLADQEERWAAVRIDVIGVRVGPKNSGRTPELTHLQGIG”, the “soluble on expression in E. coli” value is given as “soluble”.

Regarding “SLVCKNALQDLSFLEHLLQVKYAPKTWKEQYLGWDLVQSSVSAQQKLRTQENPSTSFCQQVLADFIGGLNDFHAGVTFFAIESAYLPYTVQKSSDGRFYFVDIMTFSSEIRVGDELLEVDGAPVQDVLATLYGSNHKGTAAEESAALRTLFSRMASLGHKVPSGRTTLKIRRPFGTTREVRVKWRYVPEGVGDLATIAPSIRAPQLQKSMRSFFPKKDDAFHRSSSLFYSPMVPHFWAELRNHYATSGLKSGYNIGSTDGFLPVIGPVIWESEGLFRAYISSVTDGDGKSHKVGFLRIPTYSWQDMEDFDPSGPPPWEEFAKIIQVFSSNTEALIIDQTNNPGGSVLYLYALLSMLTDRPLELPKHRMILTQDEVVDALDWLTLLENVDTNVESRLALGDNMEGYTVDLQVAEYLKSFGRQVLNCWSKGDIELSTPIPLFGFEKIHPHPRVQYSKPICVLINEQDFSCADFFPVVLKDNDRALIVGTRTAGAGGFVFNVQFPNRTGIKTCSLTGSLAVREHGAFIENIGVEPHIDLPFTANDIRYKGYSEYLDKVKKLVCQLINNDGTIILAEDGSFHHHHHH”, the “soluble on expression in E. coli” value was “soluble”.

With “SMDMKQQNFCVVELLPSDPEYNTVASKFNQTCSHFRIEKIERIQNPDLWNSYQAKKKTMDAKNGQTMNEKQLFHGTDAGSVPHVNRNGFNRSYAGKNAVAYGKGTYFAVNANYSANDTYSRPDANGRKHVYYVRVLTGIYTHGNHSLIVPPSKNPQNPTDLYDTVTDNVHHPSLFVAFYDYQAYPEYLITFRK”, the “soluble on expression in E. coli” value was “soluble”.

As for “SMKEPSQQRVKRWGFGMDEALKDPVGREQFLKFLESEFSSENLRFWLAVEDLKKRPIKEVPSRVQEIWQEFLAPGAPSAINLDSKSYDKTTHNVKEPGRYTFEDAQEHIYKLMKSDSYPRFIRSSAYQELLQAKKKSGNSMDRRTS”, the “soluble on expression in E. coli” value was “soluble”.

With “SMQEEDTFRELRIFLRNVTHRLAIDKRFRVFTKPVDPDEVPDYVTVIKQPMDLSSVISKIDLHKYLTVKDYLRDIDLICSNALEYNPDRDPGDRLIRHRACALRDTAYAIIKEELDEDFEQLCEEIQESR”, the “soluble on expression in E. coli” value is reported as “soluble”.

For the sequence “SNAAQISDGKQYITLDKPVAGEPQVLEFFSFYCPHCYQFEEVLHVSDNVKKKLPEGTKMTKYHVEFLGPLGKELTQAWAVAMALGVEDKVTVPLFEAVQKTQTVQSAADIRKVFVDAGVKGEDYDAAWNSFVVKSLVAQQEKAAADLQLQGVPAMFVNGKYQINPQGMDTSSMDVFVQQYADTVKYLVDKK”, the “soluble on expression in E. coli” value is recorded as “soluble”.

In the case of “SNAMGEAATKSDRQQNQTRLWLNILRLHGLVFGDLNRQLLDETGLSLAKFDAMAQLARNPDGLSMGKLSGALKVTNGNVSGLVNRLIKDGMVVKAMSADDRRSFSAKLTDAGLTTFKQASEAHNRILAELLRAVSDQDMVEASAALRGILESMQTGASLD”, the “soluble on expression in E. coli” value was “soluble”.

Consider “SNAMKLALITDTSAYLPEAIENHEDVYVLDIPIIIDGKTYIEGQNLTLDQYYDKLAASKELPKTSQPSLAELDDLLCQLEKEGYTHVLGLFIAAGISGFWQNIQFLIEEHPNLTIAFPDTKITSAPQGNLVRNALMCSREGMDFDVIVNKIQSQIEKIEGFIVVNDLNHLVKGGRLSNGSAIIGNLLSIKPVLHFNEEGKIVVYEKVRTEKKALKRLAEIVKEMTADGEYDIAIIHSRAQDKAEQLYNLLAKAGLKDDLEIVSFGGVIATHLGEGAVAFGITPKN”, for which the “soluble on expression in E. coli” value is “soluble”.

As to “SNAMKQIIDIENWERKENFNFFRHFQNPQLSITSEVECGGARQRAKAAGQSFFLHYLYAVLRAANEIPEFRYRIDPDGRVVLYDTIDMLSPIKIKENGKFFTTRFPYHNDFDTFYQEARLIIDAIPEDGDPYAAENEEVADGDYGLILLSATPDLYFTSITGTQEKRSGNNYPLLNAGKAIIREGRLVMPIAMTIHHGFIDGHHLSLFYKKVEDFLK”, the “soluble on expression in E. coli” value is “soluble”.
